Laboratory results reported in US20230417748A1 (GREEN CROSS, published 2023).

Target: SARS-CoV-2 spike protein (SARS-CoV-2, UniProt P0DTC2 14-1213)

B1: M4-4 (antibody, V domains shown)
VH: EVQLVESGGGLVKPGGSLRLSCAASGFTFSSRGMSWVRQAPGKGLEWVSTISFGDIYTYYPDSVKGRFTISRDNAKNSLYLQMNSLRAEDTAVYYCARPNDGYFDYWGQGTLVTVSS
VL: DIVMTQSPATLSVSPGERATLSCKASQDVSTDVAWYQQKPGQAPRLLIYWASTRHTGVPDRFSGSGSGTDFTLTISSLQSEDFAVYYCQQHYSTPWTFGGGTKVEIKR
dissociation constant against REGN10933 and REGN10987: ~10 fold
